US20210309732A1 (ELIXIRON IMMUNOTHERAPEUTICS HONG KONG, published 2021)
Where a chain is given by its changes, count along the chain named.

Target: T1, recombinant human GM-CSF (human, UniProt P04141 18-144)
T1 construct: also called rhGM-CSF; CSF2
Experiment: ELISA on coated rhGM-CSF, UBA relative to 1D2
Outline: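 Antibody clones carrying SDR point mutants in VH or VL, each paired with the wild-type chain, were expressed in HEK293 cells. Culture media diluted 1:12000 were bound to plates coated with rhGM-CSF at 1 μg/mL for 1 h at room temperature. Detection used HRP anti-human antibody and Amplex Red fluorescence (Ex530/Em590), with UBA = fluorescence signal/dilution factor.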

T1 sequence (P04141 18-144 limits assumed): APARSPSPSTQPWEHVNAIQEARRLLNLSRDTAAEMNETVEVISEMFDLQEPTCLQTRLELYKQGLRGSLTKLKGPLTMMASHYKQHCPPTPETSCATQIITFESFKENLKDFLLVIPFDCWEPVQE

B1: 1D2 SDR mutant HY103L (antibody, IgG1, V domains shown)
VH: QVQLVQSGAEVKKPGASVKVSCEASGYTFTDKYLHWVRQAPGQGLEWMAWINPKSGGTFYAQNFKGRVTVTRDTSINTAYLELTSLRLDDTSTYYCARGRDYLDQGAADLWGQGTMVTVSS
VL: DIQLTQSPSSLSASVGDRVTITCRASQGINSVLAWYQQKPGKAPKLLLYAASKLESGVPSRFSGSGSGTDYTLTISSLQPEDFGTYYCQQYYSPVRTFGQGTKVEIKR
notes: also called X6 L
For B1, the “binding affinity % of 1D2” value was 67%.

B2: 1D2 SDR mutant HY103M (antibody, IgG1, V domains shown)
VH: B1 VH with L103M
VL: B1 VL
notes: also called X6 M
In the case of B2, the “binding affinity % of 1D2” value is reported as 94%.

B3: 1D2 SDR mutant HY103P (antibody, IgG1, V domains shown)
VH: B1 VH with L103P
VL: B1 VL
notes: also called X6 P
For B3, the “binding affinity % of 1D2” value was 141%.

B4: 1D2 SDR mutant HY103Q (antibody, IgG1, V domains shown)
VH: B1 VH with L103Q
VL: B1 VL
notes: also called X6 Q
With B4 the “binding affinity % of 1D2” value was 74%.

B5: 1D2 SDR mutant HY103S (antibody, IgG1, V domains shown)
VH: B1 VH with L103S
VL: B1 VL
notes: also called X6 S
For B5, the “binding affinity % of 1D2” value was 85%.

B6: 1D2 SDR mutant HY103T (antibody, IgG1, V domains shown)
VH: B1 VH with L103T
VL: B1 VL
notes: also called X6 T
With B6 the “binding affinity % of 1D2” value was 104%.

B7: 1D2 SDR mutant HY103V (antibody, IgG1, V domains shown)
VH: B1 VH with L103V
VL: B1 VL
notes: also called X6 V
B7 was tested, and the “binding affinity % of 1D2” value was 88%.

B8: 1D2 SDR mutant HY103W (antibody, IgG1, V domains shown)
VH: B1 VH with L103W
VL: B1 VL
notes: also called X6 W
With B8 the “binding affinity % of 1D2” value was 139%.

B9: 1D2 SDR mutant LP94C (antibody, IgG1, V domains shown)
VH: B1 VH with L103Y
VL: B1 VL with P94C
notes: also called X9 C
In the case of B9, the “binding affinity % of 1D2” value is reported as 253%.

B10: 1D2 SDR mutant LP94R (antibody, IgG1, V domains shown)
VH: B1 VH with L103Y
VL: B1 VL with P94R
notes: also called X9 R
B10 was tested, and the “binding affinity % of 1D2” value was 146%.

B11: 1D2 SDR mutant LV32E (antibody, IgG1, V domains shown)
VH: B1 VH with L103Y
VL: B1 VL with V32E
notes: also called X8 E
In the case of B11, the “binding affinity % of 1D2” value is reported as 110%.

B12: 1D2 SDR mutant LV32F (antibody, IgG1, V domains shown)
VH: B1 VH with L103Y
VL: B1 VL with V32F
notes: also called X8 F
In the case of B12, the “binding affinity % of 1D2” value is reported as 109%.

B13: 1D2 SDR mutant LV32G (antibody, IgG1, V domains shown)
VH: B1 VH with L103Y
VL: B1 VL with V32G
notes: also called X8 G
B13 was tested, and the “binding affinity % of 1D2” value was 297%.

B14: 1D2 SDR mutant LV32H (antibody, IgG1, V domains shown)
VH: B1 VH with L103Y
VL: B1 VL with V32H
notes: also called X8 H
With B14 the “binding affinity % of 1D2” value was 128%.

B15: 1D2 SDR mutant LV32L (antibody, IgG1, V domains shown)
VH: B1 VH with L103Y
VL: B1 VL with V32L
notes: also called X8 L
In the case of B15, the “binding affinity % of 1D2” value is reported as 167%.

B16: 1D2 SDR mutant LV32P (antibody, IgG1, V domains shown)
VH: B1 VH with L103Y
VL: B1 VL with V32P
notes: also called X8 P
B16 was tested, and the “binding affinity % of 1D2” value was 581%.

B17: 1D2 SDR mutant LV32Y (antibody, IgG1, V domains shown)
VH: B1 VH with L103Y
VL: B1 VL with V32Y
notes: also called X8 Y
In the case of B17, the “binding affinity % of 1D2” value is reported as 114%.

B18: 1D2 SDR mutant LV95C (antibody, IgG1, V domains shown)
VH: B1 VH with L103Y
VL: B1 VL with V95C
notes: also called X10 C
B18 was tested, and the “binding affinity % of 1D2” value was 46%.
